Source: patent US20260234224A1 (VANDERBILT UNIVERSITY, published 2026)

Biological target: T1, SARS-CoV-2 RBD (SARS-CoV-2, UniProt P0DTC2 319-541)
T1 construct: domain: RBD
Assay: ELISA on recombinant spike subdomains

B1: 71281-31 (antibody, V domains shown)
VH: QVQLVESGGGVVQPGRSLRLSCAASGFTFSRYGMHWVRQAPGKGLEWVAFISYDGDNKYYADSVKGRFTISRDNSKNTLYLQMDSLRTEDTAVYYCAKDPTARLGYCRGGSCYLADYWGQGTLVTVSS
VL: SYVLTQPPSVSVAPAQTARITCGGNNIESKSVHWYQQKPGQAPVLVVYENSDRPSGIPERFSGSNSGNMATLTISRVEAGDEADYYCQVWESSSDHVIFGGGTKLTVL
binding result: binds
